The target in data set [1] is BMP-9 dimer (disulfide-linked BMP-9 growth factor homodimer) (human) (UniProt Q9UK05).
The target in data set [2] is BMP-9 monomer (cysteinylated BMP-9 growth factor) (human) (UniProt Q9UK05).
In data set [3] the target is BMP-10 monomer (human) (UniProt O95393).
Data set [4] deals with BMP-10 dimer (human) (UniProt O95393).
Data set [5] concerns the molecule itself. The data set is described as follows: crystal structure; BMP-10 Crystal Chimera; 25% 1,2-propanediol, 100 mM phosphate pH 6.2, 10% glycerol.
In data set [6] the target is T1, Pro-(X)-BMP-10 R353K, O95393.
T1 chain: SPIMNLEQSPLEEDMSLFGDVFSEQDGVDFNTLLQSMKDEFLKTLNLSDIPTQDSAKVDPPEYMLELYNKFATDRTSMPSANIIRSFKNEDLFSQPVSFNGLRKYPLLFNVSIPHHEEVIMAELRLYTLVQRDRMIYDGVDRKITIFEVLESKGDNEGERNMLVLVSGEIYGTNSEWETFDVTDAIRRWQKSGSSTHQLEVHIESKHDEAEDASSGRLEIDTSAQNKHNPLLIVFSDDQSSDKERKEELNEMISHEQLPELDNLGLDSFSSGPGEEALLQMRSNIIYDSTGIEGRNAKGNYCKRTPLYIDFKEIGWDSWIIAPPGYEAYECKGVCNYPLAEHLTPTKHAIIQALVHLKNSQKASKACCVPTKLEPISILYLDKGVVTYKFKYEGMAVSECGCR
The data set is described as follows: SDS-PAGE densitometry after IMAC purification. Particulars: chain shown with the change.

“BMP-9 dimer (disulfide-linked BMP-9 growth factor homodimer) (from UniProt Q9UK05 320-429) (ligand)” had an EC50 of pSMAD1/5/9 (western blot) in serum-starved HUVECs, 45 minutes, dimers 0.001–1.62 ng/mL in data set [1] of 3.3 pM.

Regarding “BMP-9 monomer (cysteinylated BMP-9 growth factor) (from UniProt Q9UK05 320-429) (ligand)”, the EC50 of pSMAD1/5/9 (western blot) in serum-starved HUVECs, 45 minutes, monomers 0.01–54 ng/mL in data set [2] was 124 pM.

B1: BMP-10 monomer (ligand)
chain: NAKGNYCKRTPLYIDFKEIGWDSWIIAPPGYEAYECRGVCNYPLAEHLTPTKHAIIQALVHLKNSQKASKACCVPTKLEPISILYLDKGVVTYKFKYEGMAVSECGCR
modifications: cysteinylated (+119 Da); the paper takes the site to be the interchain cysteine
Turning to B1, in data set [3], the EC50 of pSMAD1/5/9 (western blot) in serum-starved HUVECs, 45 minutes, monomers 0.01–54 ng/mL worked out at 164 pM.

B2: BMP-10 dimer (ligand)
chain: B1 chain
modifications: interchain disulfide
In turn, B2 had an EC50 of pSMAD1/5/9 (western blot) in serum-starved HUVECs, 45 minutes, dimers 0.001–1.62 ng/mL in data set [4] of 5.9 pM.

B3: BMP-10 Crystal Chimera (growth factor from Pro9-(X)-BMP-10 Crystal Chimera) (ligand, human)
chain: DDGNYCKRTPLYIDFKEIGWDSWIIAPPGYEAYECRGVCFFPLAEHLTPTKHAIIQTLVHLKNSQKASKACCVPTKLEPISILYLDKGVVTLKYKYEGMAVSECGCR
notes: human proBMP10 residues 320-424 with five residues replaced by BMP-9 crystal contacts; numbers count on the precursor; Expressed behind the BMP-9 prodomain (proBMP9 residues 23-315); also called chimeric BMP-10; source: expi293 (suspension HEK293), expressed as Pro9-(X)-BMP-10 Crystal Chimera; purified
Take B3: the binding result in data set [5] is listed as “binds”.

B4: Pro-(X)-BMP-10, O95393 R353K (protein)
chain: T1 chain
As for B4, the other: dimer over monomer ratio in data set [6] stood at 0.9.

The values above are taken from paper doi:10.1101/2024.10.14.618187, “Molecular basis of interchain disulfide-bond formation in BMP-9 and BMP-10” (bioRxiv, 2024).
